Measured values as given in patent US10772928B2, “Modulation and detection of a neuronal alternative splicing regulatory network for treatment and diagnosis of neurological disorders” (The Governing Council of the University of Toronto, priority 2014, dated 2020).

T1: nSR100 (Mus musculus, UniProt Q8BKA3)
T1 construct: host or cells: mouse N2A cells
T1 sequence (Q8BKA3 1-608): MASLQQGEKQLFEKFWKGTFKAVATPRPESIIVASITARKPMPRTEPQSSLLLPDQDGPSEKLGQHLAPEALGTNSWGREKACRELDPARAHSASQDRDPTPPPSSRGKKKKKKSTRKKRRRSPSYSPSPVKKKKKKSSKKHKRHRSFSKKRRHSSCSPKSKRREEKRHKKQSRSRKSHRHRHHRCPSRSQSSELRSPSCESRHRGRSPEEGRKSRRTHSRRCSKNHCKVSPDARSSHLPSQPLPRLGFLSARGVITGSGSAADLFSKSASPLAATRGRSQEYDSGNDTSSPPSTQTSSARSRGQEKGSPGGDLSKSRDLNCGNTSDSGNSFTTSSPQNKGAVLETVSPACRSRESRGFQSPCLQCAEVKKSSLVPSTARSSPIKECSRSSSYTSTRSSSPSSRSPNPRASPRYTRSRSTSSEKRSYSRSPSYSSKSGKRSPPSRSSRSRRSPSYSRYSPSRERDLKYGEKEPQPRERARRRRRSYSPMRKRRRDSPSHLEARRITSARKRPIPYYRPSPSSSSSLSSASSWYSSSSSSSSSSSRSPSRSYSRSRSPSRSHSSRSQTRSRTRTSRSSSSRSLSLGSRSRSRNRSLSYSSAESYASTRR

B1: Sf3b1 (protein, UniProt Q99NB9 1-1304, looked up)
Splicing factor 3B subunit 1: MAKIAKTHEDIEAQIREIQGKKAALDEAQGVGLDSTGYYDQEIYGGSDSRFAGYVTSIAATELEDDDDDYSSSTSLLGQKKPGYHAPVALLNDIPQSTEQYDPFAEHRPPKIADREDEYKKHRRTMIISPERLDPFADGGKTPDPKMNARTYMDVMREQHLTKEEREIRQQLAEKAKAGELKVVNGAAASQPPSKRKRRWDQTADQTPGATPKKLSSWDQAETPGHTPSLRWDETPGRAKGSETPGATPGSKIWDPTPSHTPAGAATPGRGDTPGHATPGHGGATSSARKNRWDETPKTERDTPGHGSGWAETPRTDRGGDSIGETPTPGASKRKSRWDETPASQMGGSTPVLTPGKTPIGTPAMNMATPTPGHIMSMTPEQLQAWRWEREIDERNRPLSDEELDAMFPEGYKVLPPPAGYVPIRTPARKLTATPTPLGGMTGFHMQTEDRTMKSVNDQPSGNLPFLKPDDIQYFDKLLVDVDESTLSPEEQKERKIMKLLLKIKNGTPPMRKAALRQITDKAREFGAGPLFNQILPLLMSPTLEDQERHLLVKVIDRILYKLDDLVRPYVHKILVVIEPLLIDEDYYARVEGREIISNLAKAAGLATMISTMRPDIDNMDEYVRNTTARAFAVVASALGIPSLLPFLKAVCKSKKSWQARHTGIKIVQQIAILMGCAILPHLRSLVEIIEHGLVDEQQKVRTISALAIAALAEAATPYGIESFDSVLKPLWKGIRQHRGKGLAAFLKAIGYLIPLMDAEYANYYTREVMLILIREFQSPDEEMKKIVLKVVKQCCGTDGVEANYIKTEILPPFFKHFWQHRMALDRRNYRQLVDTTVELANKVGAAEIISRIVDDLKDEAEQYRKMVMETIEKIMGNLGAADIDHKLEEQLIDGILYAFQEQTTEDSVMLNGFGTVVNALGKRVKPYLPQICGTVLWRLNNKSAKVRQQAADLISRTAVVMKTCQEEKLMGHLGVVLYEYLGEEYPEVLGSILGALKAIVNVIGMHKMTPPIKDLLPRLTPILKNRHEKVQENCIDLVGRIADRGAEYVSAREWMRICFELLELLKAHKKAIRRATVNTFGYIAKAIGPHDVLATLLNNLKVQERQNRVCTTVAIAIVAETCSPFTVLPALMNEYRVPELNVQNGVLKSLSFLFEYIGEMGKDYIYAVTPLLEDALMDRDLVHRQTASAVVQHMSLGVYGFGCEDSLNHLLNYVWPNVFETSPHVIQAVMGALEGLRVAIGPCRMLQYCLQGLFHPARKVRDVYWKIYNSIYIGSQDALIAHYPRIYNDDKNTYIRYDLDYIL
B2: Sf1 (protein, UniProt Q64213 2-653, looked up)
Splicing factor 1: ATGANATPLDFPSKKRKRSRWNQDTMEQKTVIPGMPTVIPPGLTREQERAYIVQLQIEDLTRKLRTGDLGIPPNPEDRSPSPEPIYNSEGKRLNTREFRTRKKLEEERHTLITEMVALNPDFKPPADYKPPATRVSDKVMIPQDEYPEINFVGLLIGPRGNTLKNIEKECNAKIMIRGKGSVKEGKVGRKDGQMLPGEDEPLHALVTANTMENVKKAVEQIRNILKQGIETPEDQNDLRKMQLRELARLNGTLREDDNRILRPWQSSETRSITNTTVCTKCGGAGHIASDCKFQRPGDPQSAQDKARMDKEYLSLMAELGEAPVPASVGSTSGPATTPLASAPRPAAPASNPPPPSLMSTTQSRPPWMNSGPSENRPYHGMHGGGPGGPGGGPHSFPHPLPSLTGGHGGHPMQHNPNGPPPPWMQPPPPPMNQGPHPPGHHGPPPMDQYLGSTPVGSGVYRLHQGKGMMPPPPMGMMPPPPPPPSGQPPPPPSGPLPPWQQQQQQPPPPPPPSSSMASSTPLPWQQNTTTTTTSAGTGSIPPWQQQQAAAAASPGTPQMQGNPTMVPLPPGVQPPLPPGAPPPPPCSIECLLCLLSSPNSLCLSPNRAARIPPRGSDGPSHESEDFPRPLVTLPGRQPQQRPWWTGWFGKAA
B3: Prpf4b (protein, UniProt Q61136 2-1007, looked up)
Serine/threonine-protein …: AATEPPSLREQAEMDDADNSEKSVNEENGEVSEDQSQNKHSRHKKKKHKHRSKHKKHKHSSEEDRDKKHKHKHKHKKHKRKEVIEASDKEGLSPAKRTKLDDLALLEDLEKQRALIKAELDNELMEGKVQSGMGLILQGYESGSEEEGEIHEKARNGNRSSTRSSSTRGKLEITDNKNSAKKRSKSRSKERTRHRSDKRKSKGAGEMLREKANRSKSKERRKSKSPSKRSKSQDQARKSKSPPLRRRSQEKVGKARSPAEEKMKSEEKGKIKDRKKSPIVNERSRDRSKKSKSPVDLRDKSKDRRSRSKERKSKRSEIDKEKKPIKSPSKDASSGKENRSPSRRPGRSPKRRSLSPKLRDKSRRSRSPLLNDRRSKQSKSPSRTLSPGRRAKSRSLERKRREPERRRLSSPRTRPRDDILGRCERSKDASPINRWSPTRRRSRSPIRRRSRSPLRRSRSPRRRSRSPRRRDRSRRSRSRLRRRSRSRGGHRRRSRSKVKEDKFKGSLSEGMKVEQESSSDDNLEDFDVEEEDEEALIEQRRIQRQAIVQKYKYLAEDSNISVPSEPSSPQSSTRSRSPSPDDILERVAADVKEYERENVDTFEASVKAKHNLMTVEQNNGSSQKKILAPDMFTESDDMFAAYFDSARLRAAGIGKDFKENPNLRDNWTDAEGYYRVNIGEVLDKRYNVYGYTGQGVFSNVVRARDNARANQEVAVKIIRNNELMQKTGLKELEFLKKLNDADPDDKFHCLRLFRHFYHKQHLCLVFEPLSMNLREVLKKYGKDVGLHIKAVRSYSQQLFLALKLLKRCNILHADIKPDNILVNESKTILKLCDFGSASHVADNDITPYLVSRFYRAPEIIIGKSYDYGIDMWSVGCTLYELYTGKILFPGKTNNHMLKLAMDLKGKMPNKMIRKGVFKDQHFDQNLNFMYIEVDKVTEREKVTVMSTINPTKDLLADLIGCQRLPEDQRKKVHQLKDLLDQILMLDPAKRISINQALQHAFIQEKI
B4: Sf3a1 (protein, UniProt Q8K4Z5 1-791, looked up)
Splicing factor 3A subunit 1: MQAGPVQAVPPPPPVATESKQPIEEEASSKEDPTPSKPVVGIIYPPPEVRNIVDKTASFVARNGPEFEARIRQNEINNPKFNFLNPNDPYHAYYRHKVSEFKEGKAQEPSAAIPKVMQQQQQATQQQLPQKVQAQVIQETIVPKEPPPEFEFIADPPSISAFDLDVVKLTAQFVARNGRQFLTQLMQKEQRNYQFDFLRPQHSLFNYFTKLVEQYTKILIPPKGLFSKLKKEAENPREVLDQVCYRVEWAKFQERERKKEEEEKEKERVAYAQIDWHDFVVVETVDFQPNEQGNFPPPTTPEELGARILIQERYEKFGESEEVEMEVESDEEDQEKAEETPSQLDQDTQVQDMDEGSDDEEEGQKVPPPPETPMPPPLPPTPDQVIVRKDYDPKASKPLPPAPAPDEYLVSPITGEKIPASKMQEHMRIGLLDPRWLEQRDRSIREKQSDDEVYAPGLDIESSLKQLAERRTDIFGVEETAIGKKIGEEEIQKPEEKVTWDGHSGSMARTQQAAQANITLQEQIEAIHKAKGLVPEDDTKEKIGPSKPNEIPQQPPPPSSATNIPSSAPPITSVPRPPAMPPPVRTTVVSAVPVMPRPPMASVVRLPPGSVIAPMPPIIHAPRINVVPMPPAAPPIMAPRPPPMIVPTAFVPAPPVAPVPAPAPMPPVHPPPPMEDEPPSKKLKTEDSLMPEEEFLRRNKGPVSIKVQVPNMQDKTEWKLNGQGLVFTLPLTDQVSVIKVKIHEATGMPAGKQKLQYEGIFIKDSNSLAYYNMASGAVIHLALKERGGRKK
B5: Rbm25 (protein, UniProt B2RY56 1-838, looked up)
RNA-binding protein 25: MSFPPHLNRPPMGIPALPPGIPPPQFPGFPPPVPPGTPMIPVPMSIMAPAPTVLVPTVSMVGKHLGARKDHPGLKLKENDENCGPTTTVFVGNISEKASDMLIRQLLAKCGLVLSWKRVQGASGKLQAFGFCEYKEPESTLRALRLLHDLQIGEKKLLVKVDAKTKAQLDEWKAKKKANGNARPETVTNDDEEALDEETKRRDQMIKGAIEVLIREYSSELNAPSQESDSHPRKKKKEKKEDIFRRFPVAPLIPYPLITKEDINAIEMEEDKRDLISREISKFRDTHKKLEEEKGKKEKERQEIEKERRERERERERERERREREREREREREREKEKERERERERDRDRDRTKERDRDRERDRDRDRERSSDRNKDRSRSREKSRDREREREREREREREREREREREREREREREREREKDKKRDREEDEEDAYERRKLERKLREKEAAYQERLKNWEIRERKKTREYEKEAEREEERRREMAKEAKRLKEFLEDYDDDRDDPKYYRGSALQKRLRDREKEMEADERDRKREKEELEEIRQRLLAEGHPDPDAELQRMEQEAERRRQPQIKQEPESEEEEEEKQEKEEKREEPVEEEEEPEQKPCLKPTLRPISSAPSVSSASGNATPNTPGDESPCGIIIPHENSPDQQQPEEHRPKIGLSLKLGASNSPGQPNSVKRKKLPVDSVFNKFEDEDSDDVPRKRKLVPLDYGEDDKNATKGTVNTEEKRKHIKSLIEKIPTAKPELFAYPLDWSIVDSILMERRIRPWINKKIIEYIGEEEATLVDFVCSKVMAHSSPQSILDDVAMVLDEEAEVFIVKMWRLLIYETEAKKIGLVK

target: T1, nSR100; assay: AP-MS nSR100 interaction partners from mouse N2A cells (Table 5); format: binding; details: bait Srrm4
Text: By applying affinity purification coupled to mass-spectrometry (AP-MS), several interaction nSR100 partner proteins were detected that provide insight into mechanisms of post-translational regulation of nSR100 levels.

B1 and B2 are the same in “AvgP (average of the SAINT scores)” value: 1 for the first, 1 for the second.

B3 and B4 are the same in “AvgP (average of the SAINT scores)” value: 1 for the first, 1 for the second.

With B5 the “AvgP (average of the SAINT scores)” value was 1.

B1 and B2 are the same in “MaxP (maximal SAINT score)” value: 1 for the first, 1 for the second.

B3 and B4 are the same in “MaxP (maximal SAINT score)” value: 1 for the first, 1 for the second.

With B5 the “MaxP (maximal SAINT score)” value was 1.

same assay, conditions: bait Srrm4, 0.1 added to prevent division by 0

Compared with B1, B2 is higher in “FoldChange between the prey Avg spectra of the bait and control purifications” value (“FoldChange between the prey Avg spectra” below): 3.45 for the first, 11.92 for the second.

Going from B3 to B4, the “FoldChange between the prey Avg spectra” value falls from 45 to 8.33.

With B5 the “FoldChange between the prey Avg spectra” value was 180.

same assay, conditions: bait Srrm4, 2 replicates

Compared with B1, B2 is lower in “AvgSpec (average number of spectra per replicate)” value: 112 for the first, 71.5 for the second.

Compared with B3, B4 is higher in “AvgSpec (average number of spectra per replicate)” value: 4.5 for the first, 25 for the second.

With B5 the “AvgSpec (average number of spectra per replicate)” value was 18.

same assay, conditions: bait Srrm4, biological replicate 1 (first number of the cell), AP-MS

Compared with B1, B2 is lower in “Spectra (number of spectra for the prey in the purification of the bait)” value: 92 for the first, 70 for the second.

Compared with B3, B4 is higher in “Spectra (number of spectra for the prey in the purification of the bait)” value: 4 for the first, 20 for the second.

B5 was tested, and the “Spectra (number of spectra for the prey in the purification of the bait)” value was 16.

same assay, conditions: bait Srrm4, biological replicate 2 (second number of the cell), AP-MS

Compared with B1, B2 is lower in “Spectra (number of spectra for the prey in the purification of the bait)” value: 132 for the first, 73 for the second.

First: B3
Second: B4
The “Spectra (number of spectra for the prey in the purification of the bait)” value of the first is lower: 5 for the first, 30 for the second.

B5 was tested, and the “Spectra (number of spectra for the prey in the purification of the bait)” value was 20.

same assay, conditions: bait Srrm4, sum of spectra over 2 replicates

Compared with B1, B2 is lower in SpecSum: 224 for the first, 143 for the second.

First: B3
Second: B4
The SpecSum of the first is lower: 9 for the first, 50 for the second.

B5 showed a SpecSum of 36.
